# Results taken from paper PMC8863163 (Research Square, 2022).
# Molecular target: T1, SARS-CoV-2 nsp12 (RNA-dependent RNA polymerase with N-terminal NiRAN domain) (SARS-CoV-2, UniProt P0DTD1)
# T1 construct: also called RdRp; WT nsp12
# Test: cryo-EM structure
# Conditions: both partners purified
binder,measurement,value
"SARS-CoV-2 nsp9 with native N-terminus (natural protein, also called native nsp9) NNELSPVALRQMSCAAGTTQTACTDDNALAYYNTTKGGRFVLALLSDLQDLKWARFPKSDGTGTIYTELEPPCRFVTDTPKGPKVKYLYFIKGLNNLNRGMVLGSLAATVRLQ",binding result,binds
